The substances below were run against F-actin (UniProt P68032) (assay: co-sedimentation).

Substance	Kd [nM]
E40K mutant human α-tropomyosin (Tpm1.1) with the N-terminal extension Met-Ala-Ser (natural protein)	1600
E62Q mutant human α-tropomyosin (Tpm1.1) with the N-terminal extension Met-Ala-Ser (natural protein)	1700
wild-type human striated α-tropomyosin (Tpm1.1) with the N-terminal extension Met-Ala-Ser (natural protein)	1800

Reference: paper PMC5958618
